The text below walks through data of patent US20230192896A1 (published 2023).

T1: FX zymogen (UniProt P00742 41-179; P00742 183-488)
T1 chain 1: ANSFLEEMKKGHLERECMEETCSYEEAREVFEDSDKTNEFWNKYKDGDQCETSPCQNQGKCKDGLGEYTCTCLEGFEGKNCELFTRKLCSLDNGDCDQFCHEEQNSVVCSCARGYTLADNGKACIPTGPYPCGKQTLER
T1 chain 2: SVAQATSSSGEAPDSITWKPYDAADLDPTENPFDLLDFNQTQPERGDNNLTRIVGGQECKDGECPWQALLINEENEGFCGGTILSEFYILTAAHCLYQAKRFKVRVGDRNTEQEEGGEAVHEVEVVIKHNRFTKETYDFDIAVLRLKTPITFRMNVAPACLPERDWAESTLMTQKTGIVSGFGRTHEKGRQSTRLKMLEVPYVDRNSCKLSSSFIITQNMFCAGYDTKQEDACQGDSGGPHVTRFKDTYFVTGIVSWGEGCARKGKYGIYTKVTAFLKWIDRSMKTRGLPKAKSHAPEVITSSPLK

B1: BIIB-12-907 (antibody, V domains shown)
VH: QVQLQESGPGLVKPSETLSLTCAVSGYSISSGYYWAWIRQPPGKGLEWIGSIYHSGSTYYNPSLKSRVTISVDTSKNQFSLKLSSVTAADTAVYYCARESGMSGAAYWGQGTLVTVSS
VL: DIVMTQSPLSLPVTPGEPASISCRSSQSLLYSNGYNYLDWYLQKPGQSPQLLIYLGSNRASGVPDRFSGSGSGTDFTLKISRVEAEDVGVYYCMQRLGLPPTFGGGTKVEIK
B2: BIIB-12-1307 (antibody, V domains shown)
VH: QVQLQESGPGLVKPSETLSLTCAVSGYSISSGYYWAWIRQPPGKGLEWIGSIYHSGSTYYNPSLKSRVTISVDTSKNQFSLKLSSVTAADTAVYYCARGPLPRSRGLAFDIWGQGTMVTVSS
VL: DIQLTQSPSSLSASVGDRVTITCRASQSISSFLNWYQQKPGKAPKLLIYAASSLQSGVPSRFSGSGSGTDFTLTISSLQPEDFATYYCQQTYSTPLTFGGGTKVEIK
B3: BIIB-12-1316 (antibody, V domains shown)
VH: QVQLVESGGGVVQPGRSLRLSCAASGFTFSSYGMHWVRQAPGKGLEWVAVISYDGSNKYYADSVKGRFTISRDNSKNTLYLQMNSLRAEDTAVYYCAKSGQYRAFDIWGQGTMVTVSS
VL: B2 VL with L4M, L11V, S28G, F32W, N34A, T91I, Y92N, S93N, T94F, L96P
B4: BIIB-12-1333 (antibody, V domains shown)
VH: QVQLVQSGAEVKKPGASVKVSCKASGYTFTSYYMVWVRQAPGQGLEWMGIINPSGGSTSYAQKFQGRVTMTRDTSTSTVYMELSSLRSEDTAVYYCARVSRRDYPLAFDIWGQGTMVTVSS
VL: EIVMTQSPATLSVSPGERATLSCRASQSVSSNLAWYQQKPGQAPRLLIYGASTRATGIPARFSGSGSGTEFTLTISSLQSEDFAVYYCQQVNTWPTFGGGTKVEIK
B5: BIIB-12-922 (antibody, V domains shown)
VH: QVQLVQSGAEVKKPGASVKVSCKASGYTFTSYYMHWVRQAPGQGLEWMGIINPSGGSTSYAQKFQGRVTMTRDTSTSTVYMELSSLRSEDTAVYYCARRGRIAGMWGQGTTVTVSS
VL: not shown
B6: BIIB-12-912 (antibody, V domains shown)
VH: B3 VH with Q101G, Y102R, R103Y, A104G, F105Y
VL: EIVMTQSPATLSVSPGERATLSCRASQSVSSNLAWYQQKPGQAPRLLIYGASTRATGIPARFSGSGSGTEFTLTISSLQSEDFAVYYCQQFHNFPPTFGGGTKVEIK
B7: BIIB-12-1329 (antibody, V domains shown)
VH: QVQLVESGGGVVQPGRSLRLSCAASGFTFSSYGMHWVRQAPGKGLEWVAVISYDGSNKYYADSVKGRFTISRDNSKNTLYLQMNSLRAEDTAVYYCARGGAGSRYFQHWGQGTLVTVSS
VL: B6 VL with L11K, G50S, F91V, H92F, F94W, E105K
B8: BIIB-12-1302 (antibody, V domains shown)
VH: QVQLVQSGAEVKKPGASVKVSCKASGYTFTNYGISWVRQAPGQGLEWMGWISAYNGNTNYAQKLQGRVTMTTDTSTSTAYMELRSLRSDDTAVYYCARARSDWRAFDIWGQGTMVTVSS
VL: B6 VL with F91V, H92N, F94L, P96L
B9: BIIB-12-930 (antibody, V domains shown)
VH: QVQLVQSGAEVKKPGASVKVSCKASGYTFTSYYMHWVRQAPGQGLEWMGIINPSGGSTSYAQKFQGRVTMTRDTSTSTVYMELSSLRSEDTAVYYCARVRQKATLLFQHWGQGTLVTVSS
VL: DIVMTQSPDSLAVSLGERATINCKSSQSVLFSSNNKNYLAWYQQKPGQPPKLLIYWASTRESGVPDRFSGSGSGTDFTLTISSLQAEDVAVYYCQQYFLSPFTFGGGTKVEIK
B10: BIIB-12-919 (antibody, V domains shown)
VH: QVQLVQSGAEVKKPGASVKVSCKASGYTFTSYYMHWVRQAPGQGLEWMGVINPSGGSTSYAQKFQGRVTMTRDTSTSTVYMELSSLRSEDTAVYYCARGANIAVGRRYADYWGQGTLVTVSS
VL: DIQMTQSPSTLSASVGDRVTITCRASQSISSWLAWYQQKPGKAPKLLIYKASSLESGVPSRFSGSGSGTEFTLTISSLQPDDFATYYCQQVSSYPTFGGGTKVEIK

Numbering of substitutions follows the chain as printed.

This test addresses T1, FX zymogen. Put plainly: BLI.
Regarding B1, binding was put at a Kd of 52 nM. Molecule B2 came in with a Kd of 19.8 nM. B3 showed a Kd of 45 nM. As for B4, the figure is 16 nM; as for B5, 38.6 nM.

For the molecule B6, the Kd was determined as 31.1 nM.

B7 returned a Kd of 48.5 nM.

As for B8, the Kd was 64.1 nM.

Molecule B9 came in with a Kd of 56 nM.

On to B10, for which the Kd turned out to be 23.1 nM.
